Measured values taken from patent publication US20120135923A1, “Use of Melanocortins to Treat Dyslipidemia” (IPSEN PHARMA, S.A.S., priority 2009, published 2012).
Bridge positions count the residues as written; N and C are the ends. Square brackets hold non-standard residues; d marks the D form.

Columns and labels:
hMC4-R (human) [1] = target: hMC4-R (human) (UniProt P32245); experiment: competition with [125I]-NDP-α-MSH, CHO-K1 membranes
hMC1-R (human) [2] = target: hMC1-R (human) (UniProt Q01726); experiment: as above
Chain of hMC1-R (human) (Q01726 whole entry): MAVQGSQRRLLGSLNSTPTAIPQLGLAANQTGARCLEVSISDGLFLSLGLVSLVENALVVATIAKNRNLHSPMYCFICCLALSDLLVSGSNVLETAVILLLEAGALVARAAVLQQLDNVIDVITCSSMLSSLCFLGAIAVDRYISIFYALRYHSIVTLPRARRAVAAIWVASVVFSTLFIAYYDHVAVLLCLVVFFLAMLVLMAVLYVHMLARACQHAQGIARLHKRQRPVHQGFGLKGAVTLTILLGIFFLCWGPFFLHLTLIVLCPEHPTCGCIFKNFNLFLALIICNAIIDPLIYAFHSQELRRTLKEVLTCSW

hMC5-R (human) [3] = target: hMC5-R (human) (UniProt P33032); experiment: as above
Chain of hMC5-R (human) (P33032 whole entry): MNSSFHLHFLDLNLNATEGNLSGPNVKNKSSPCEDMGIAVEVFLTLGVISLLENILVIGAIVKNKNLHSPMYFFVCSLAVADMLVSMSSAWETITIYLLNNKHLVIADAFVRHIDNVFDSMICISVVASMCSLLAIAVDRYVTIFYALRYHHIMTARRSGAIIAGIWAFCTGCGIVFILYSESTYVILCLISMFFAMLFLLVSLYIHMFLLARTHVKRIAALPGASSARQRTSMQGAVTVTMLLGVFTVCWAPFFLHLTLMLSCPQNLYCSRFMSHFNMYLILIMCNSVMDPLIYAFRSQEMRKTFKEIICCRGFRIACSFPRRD

hMC3-R (human) [4] = target: hMC3-R (human) (UniProt P41968); experiment: as above
Chain of hMC3-R (human) (P41968 whole entry): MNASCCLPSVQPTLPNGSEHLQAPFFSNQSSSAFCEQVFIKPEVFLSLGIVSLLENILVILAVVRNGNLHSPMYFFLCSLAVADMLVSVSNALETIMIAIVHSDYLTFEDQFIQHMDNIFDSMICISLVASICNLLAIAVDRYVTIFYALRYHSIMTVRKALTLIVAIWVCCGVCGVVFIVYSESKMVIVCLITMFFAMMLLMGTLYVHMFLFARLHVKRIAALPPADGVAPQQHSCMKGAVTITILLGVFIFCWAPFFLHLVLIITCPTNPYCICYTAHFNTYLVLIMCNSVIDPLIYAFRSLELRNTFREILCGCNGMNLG

hMC1-R (human) [5] = target: hMC1-R (human) (UniProt Q01726); experiment: ratio Ki hMC1-R / Ki hMC4-R, same assay
hMC4-R (human) [6] = target: hMC4-R (human) (UniProt P32245); experiment: cell-based or functional assay
hMC1-R (human) [7] = target: hMC1-R (human) (UniProt Q01726); experiment: cell-based or functional assay
hMC5-R (human) [8] = target: hMC5-R (human) (UniProt P33032); experiment: cell-based or functional assay
hMC3-R (human) [9] = target: hMC3-R (human) (UniProt P41968); experiment: cell-based or functional assay
[10] = target: human melanocortin receptor subtype 5 (hMC5-R) (human) (UniProt P33032); experiment: [125I]-NDP-α-MSH competition, membranes
Chain of human melanocortin receptor subtype 5 (hMC5-R) (human) (P33032 whole entry): as the sequence (P33032 whole entry) above

[11] = target: human melanocortin receptor subtype 4 (hMC4-R) (human) (UniProt P32245); experiment: [125I]-NDP-α-MSH competition, membranes
Chain of human melanocortin receptor subtype 4 (hMC4-R) (human) (P32245 whole entry): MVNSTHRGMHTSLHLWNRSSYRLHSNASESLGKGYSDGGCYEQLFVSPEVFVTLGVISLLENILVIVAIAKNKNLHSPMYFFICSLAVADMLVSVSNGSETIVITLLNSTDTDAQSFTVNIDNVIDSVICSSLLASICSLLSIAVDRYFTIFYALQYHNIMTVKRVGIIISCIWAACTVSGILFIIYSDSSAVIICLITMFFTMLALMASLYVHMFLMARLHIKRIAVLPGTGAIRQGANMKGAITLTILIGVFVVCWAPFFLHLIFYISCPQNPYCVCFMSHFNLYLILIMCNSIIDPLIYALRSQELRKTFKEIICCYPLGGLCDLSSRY

[12] = target: human melanocortin receptor subtype 1 (hMC1-R) (human) (UniProt Q01726); experiment: [125I]-NDP-α-MSH competition, membranes
Chain of human melanocortin receptor subtype 1 (hMC1-R) (human) (Q01726 whole entry): as the sequence (Q01726 whole entry) above

[13] = target: human melanocortin receptor subtype 3 (hMC3-R) (human) (UniProt P41968); experiment: [125I]-NDP-α-MSH competition, membranes
Chain of human melanocortin receptor subtype 3 (hMC3-R) (human) (P41968 whole entry): as the sequence (P41968 whole entry) above

Chain of hMC4-R (human) (P32245 whole entry): as the sequence (P32245 whole entry) above

Substance: Ac-Cha-c(Asp-His-D-2-Nal-Arg-Trp-Gaba-Lys)-NH2 (peptide)
- Ki (hMC4-R (human) [1]): 2.82 nM
- Ki (hMC1-R (human) [2]): 0.576 nM
- Ki (hMC5-R (human) [3]): 3.91 nM
- Ki (hMC3-R (human) [4]): 3.98 nM
- Ki hMC1-R/MC4-R (hMC1-R (human) [5]): 0.2

Substance: Ac-Cha-c(Asp-His-D-Phe-Arg-Trp-Gaba-Lys)-NH2 (peptide; unit assumed)
- cAMP EC50 (hMC4-R (human) [6]): 0.0949 nM
- cAMP EC50 (hMC1-R (human) [7]): 3.26 nM
- cAMP EC50 (hMC5-R (human) [8]): 30.2 nM
- cAMP EC50 (hMC3-R (human) [9]): 0.189 nM

Substance: Ac-D-Arg-c(Asp-His-D-Phe-Arg-Trp-Ala-Lys)-NH2 (peptide; unit assumed)
- cAMP EC50 (hMC4-R (human) [6]): 0.078 nM
- cAMP EC50 (hMC1-R (human) [7]): 1.48 nM
- cAMP EC50 (hMC5-R (human) [8]): 297 nM
- cAMP EC50 (hMC3-R (human) [9]): 5.76 nM

Substance: Ac-D-Arg-c(Cys-D-Ala-His-D-Phe-Arg-Trp-Cys)-NH2 (peptide)
- Ki (hMC5-R (human) [3]): 352 nM

Substance: Ac-D-Arg-c(Cys-D-Ala-His-D-Phe-Arg-Trp-Pen)-NH2 (peptide)
- Ki (hMC1-R (human) [2]): 8.29 nM
- Ki (hMC5-R (human) [3]): 816 nM
- Ki (hMC3-R (human) [4]): 13.3 nM

Substance: Ac-Nle-c(Asp-His-D-2-Nal-Arg-Trp-β-Ala-Lys)-NH2 (peptide)
- Ki (hMC1-R (human) [2]): 0.648 nM

Substance: Ac-Nle-c(Asp-His-D-Phe-Arg-Trp-Gaba-Lys)-NH2 (peptide; unit assumed)
- cAMP EC50 (hMC4-R (human) [6]): 0.131 nM
- cAMP EC50 (hMC1-R (human) [7]): 1.37 nM
- cAMP EC50 (hMC5-R (human) [8]): 3.48 nM
- cAMP EC50 (hMC3-R (human) [9]): 0.628 nM

Substance: Ac-Nle-c(Asp-His-D-Phe-Arg-Trp-β-Ala-Lys)-NH2 (peptide; unit assumed)
- cAMP EC50 (hMC4-R (human) [6]): 0.128 nM
- cAMP EC50 (hMC1-R (human) [7]): 0.834 nM
- cAMP EC50 (hMC5-R (human) [8]): 2.79 nM
- cAMP EC50 (hMC3-R (human) [9]): 0.145 nM

Substance: Ac-Nle-c(Cys-3-Pal-D-Phe-Arg-Trp-Gaba-Cys)-NH2 (peptide)
- Ki (hMC1-R (human) [2]): 21.1 nM
- Ki (hMC5-R (human) [3]): 92.6 nM
- Ki (hMC3-R (human) [4]): 151 nM

Substance: Ac-Nle-c(Cys-D-Ala-His-D-2-Nal-Arg-Bal-Cys)-NH2 (peptide)
- Ki (hMC4-R (human) [1]): 16.6 nM
- Ki (hMC1-R (human) [2]): 22.2 nM
- Ki (hMC5-R (human) [3]): 125 nM
- Ki (hMC3-R (human) [4]): 12.7 nM
- Ki hMC1-R/MC4-R (hMC1-R (human) [5]): 1.34

Substance: Ac-Nle-c(Cys-D-Ala-His-D-2-Nal-Arg-Trp-Cys)-NH2 (peptide; unit assumed)
- cAMP Kb (hMC4-R (human) [6]): 38.8 nM
- cAMP EC50 (hMC1-R (human) [7]): 17.6 nM
- cAMP EC50 (hMC5-R (human) [8]): 11.8 nM
- cAMP Kb (hMC3-R (human) [9]): 12.4 nM

Substance: Ac-Nle-c(Cys-D-Ala-His-D-Phe-Arg-Trp-Cys)-NH2 (peptide; unit assumed)
- cAMP EC50 (hMC4-R (human) [6]): 0.078 nM
- cAMP EC50 (hMC1-R (human) [7]): 2.4 nM
- cAMP EC50 (hMC5-R (human) [8]): 420 nM
- cAMP EC50 (hMC3-R (human) [9]): 0.33 nM

Substance: Ac-Nle-c(Cys-D-Ala-His-D-Phe-Arg-Trp-Pen)-NH2 (peptide; unit assumed)
- cAMP EC50 (hMC4-R (human) [6]): 0.183 nM
- cAMP EC50 (hMC1-R (human) [7]): 14.3 nM
- cAMP EC50 (hMC5-R (human) [8]): 2240 nM
- cAMP EC50 (hMC3-R (human) [9]): 2.03 nM

Substance: Ac-Nle-c(Cys-D-Cha-His-D-Phe-Arg-Trp-Cys)-NH2 (peptide; unit assumed)
- cAMP EC50 (hMC4-R (human) [6]): 0.453 nM
- cAMP EC50 (hMC1-R (human) [7]): 0.819 nM
- cAMP EC50 (hMC5-R (human) [8]): 45.3 nM
- cAMP EC50 (hMC3-R (human) [9]): 0.541 nM

Substance: Ac-WRC[dA]H[dF]RWC-NH2 (disulfide 3-9)
- cAMP EC50 (hMC4-R (human) [6]): 0.219 nM
- cAMP EC50 (hMC1-R (human) [7]): 5.78 nM
- cAMP EC50 (hMC5-R (human) [8]): 2580 nM
- cAMP EC50 (hMC3-R (human) [9]): 3.95 nM

Substance: Ac-hCha-c(Asp-His-D-Phe-Arg-Trp-Gaba-Lys)-NH2 (peptide; unit assumed)
- cAMP EC50 (hMC4-R (human) [6]): 7.24 nM
- cAMP EC50 (hMC1-R (human) [7]): 2.27 nM
- cAMP EC50 (hMC5-R (human) [8]): 415 nM
- cAMP EC50 (hMC3-R (human) [9]): 3.32 nM

Substance: Ac-hPhe-c(Asp-His-D-2-Nal-Arg-Trp-Gaba-Lys)-NH2 (peptide)
- Ki (hMC4-R (human) [1]): 0.931 nM
- Ki (hMC1-R (human) [2]): 0.461 nM
- Ki (hMC3-R (human) [4]): 2.45 nM

Substance: Ac-hPhe-c(Asp-His-D-2-Nal-Arg-Trp-Gaba-Lys)-NH2 (peptide; unit assumed)
- cAMP Kb (hMC4-R (human) [6]): 0.824 nM
- cAMP EC50 (hMC1-R (human) [7]): 0.413 nM
- cAMP EC50 (hMC5-R (human) [8]): 0.307 nM
- cAMP Kb (hMC3-R (human) [9]): 9.32 nM

Substance: D-Phe-c(Cys-His-D-(Et)Tyr-hArg-Trp-β-Ala-D-Cys)-Thr-NH2 (peptide)
- Ki (hMC4-R (human) [1]): 14.7 nM
- Ki (hMC1-R (human) [2]): 0.0567 nM
- Ki (hMC5-R (human) [3]): 9.27 nM
- Ki (hMC3-R (human) [4]): 31.4 nM
- Ki hMC1-R/MC4-R (hMC1-R (human) [5]): 0

Substance: Hydantoin(C(O)-(D-Ala-Gly))-c(Cys-D-Ala-His-D-Phe-Arg-Trp-Cys)-NH2 (peptide)
- cAMP EC50 (hMC5-R (human) [8]): 355 nM
- Ki [10]: 34.7 nM
- Ki [11]: 4.28 nM
- Ki [12]: 11.7 nM

Substance: Hydantoin(C(O)-(D-Ala-Nle))-c(Cys-D-Ala-His-D-Phe-Arg-Trp-Cys)-NH2 (peptide)
- Ki [10]: 1820 nM
- Ki [13]: 63.9 nM
- Ki [12]: 16 nM

Substance: Hydantoin(C(O)-(D-Arg-Gly))-c(Cys-D-Ala-His-D-Phe-Arg-Trp-Cys)-NH2 (peptide)
- cAMP EC50 (hMC5-R (human) [8]): 3950 nM
- Ki [10]: 872 nM
- Ki [13]: 48.7 nM
- Ki [11]: 5.78 nM
- Ki [12]: 3.52 nM

Substance: Hydantoin(C(O)-(D-Arg-Gly))-c(Cys-Glu-His-D-Phe-Arg-Trp-Cys)-NH2 (peptide)
- cAMP EC50 (hMC5-R (human) [8]): 2710 nM
- Ki [10]: 2260 nM
- Ki [13]: 124 nM
- Ki [11]: 2.95 nM
- Ki [12]: 9.49 nM

Substance: Hydantoin(C(O)-(Gly-D-Arg))-c(Cys-Glu-His-D-Phe-Arg-Trp-Cys)-NH2 (peptide)
- cAMP EC50 (hMC5-R (human) [8]): 7440 nM
- Ki [10]: 4540 nM
- Ki [13]: 78 nM
- Ki [11]: 1.77 nM
- Ki [12]: 4.3 nM
